Data published in the RNAGym collection of RNA variant scans (doi:10.7554/elife.90254).

B1: LINE1-full (parent)
chain: UACGUAGGUGGUUUUCCCCUGAUAGUGCUAAGGGGGCCUGGAAGUUUGGACUGGGCAGAGCUCAACACAGCGUGGCAAAGUGGCUGUGGCUAGACUGCCUCUCUGGAUUCCUCGUCACUCAGCAGGGCAUCUCUGAGAGAAAUGCC

Variants of: B1
Assay: self-cleavage, relative activity (ratio to wild type); higher = more cleavage; in vitro, sequencing; the parent is a self-cleaving ribozyme

| Variant | self-cleavage |
| --- | --- |
| UACGUAGGUGGUUUUCCCCUGAUAGUGCUAAGGGGGCCUGGAAGUUUGGACUGGGCAGAGCUCAACACAGCGUGGCAAAGUGGCUGUGGCUAGACUGCCUCUCUGGAUUCCUCGUCACCCUGCAGGGCAUCUCUGAGAGAAAUGCC | 1.48 |
| UACGUAGGUGGUUUUCCCCUGAUAGUGCUAAGGGGGCCUGGUAGUUUGGACUGGGCAGAGCUCAACACAGCGUGGCAAAGUGGCUGUGGCUAGACUGCCUCUCUGGAUUCCUCGUCACUCAGCAGGGGAUCUCUGAGAGAAAUGCC | 0.87 |
| UACGUAGGUGGUAUUCCCCUGAUAGUGCUAAGGGGGCCUGGAAGUUUGGACUGGGCAGAGCUCAACACAGCGUGGCAAAGUGACUGUGGCUAGACUGCCUCUCUGGAUUCCUCGUCACUCAGCAGGGCAUCUCUGAGAGAAAUGCC | 0.58 |
| UACGUAGGUGGUUUUCCCCUGAUAGUGCUAAGGGGGCCUGGAAGUUUGGACUGGGCAGAGCGCAUCACAGCGUGGCAAAGUGGCUGUGGCUAGACUGCCUCUCUGGAUUCCUCGUCACUCAGCAGGGCAUCUCUGAGAGAAAUGCC | 0.16 |
| UACGUAGGUGGUUUUCCCCUGAUAGUGCUAAGGGGGCCUGGAAGUUUGGACUGGGCAGAGCUCAACACAGCGUGGCAGAGUGGCUGUGGCUUGACUGCCUCUCUGGAUUCCUCGUCACUCAGCAGGGCAUCUCUGAGAGAAAUGCC | 0.64 |
| UACGUAGGUGGUUUUCCCCUGAUAGUGCUAAGGGGGCCUGGAAGUUUGGACUGGGCAGAGCUCAACACAGCGUGGCAAAGUGGCUGUGGCUAGUCUGCCUCUCUGGAUUCCUCGUCACUCAGCAGGGCAUCUCUGAGAGAAACGCC | 0.24 |
| UACGUAGGUGGUUUUCCCCUGAUAGUGCUAAGGGGGCCUGGAAGUUUGGACAGGGCAGAGCUCAACACUGCGUGGCAAAGUGGCUGUGGCUAGACUGCCUCUCUGGAUUCCUCGUCACUCAGCAGGGCAUCUCUGAGAGAAAUGCC | 0.08 |
| UACGUAGGUGGUUUUCCCCUGAUAGUGCUAAGGGGGCCUGGAAGUUUGGACUGGGCAGAGCUCAACACAGCGUGGCAAAGUGGCUGUGGCUAGACUGCCUCUCUGGUUUCCUCGUCACUCAGCAGGGCUUCUCUGAGAGAAAUGCC | 1.86 |
| UACGUAGGUGGUUUUCCCCUGAUAGUGCUAAGGGGGCCUGGAAGUUUGGACCGGGCAGAGCUCAACACAGCGUGGCAUAGUGGCUGUGGCUAGACUGCCUCUCUGGAUUCCUCGUCACUCAGCAGGGCAUCUCUGAGAGAAAUGCC | 1.56 |
| UACGUAGGUGGUUUUCCCCUGAUAGUGCUAAGGGGGCCUGGAAGUUUGGACUGGGCAGGGCUCAACACAGCGUGGCAAAGUGGCUGUGGCUAGACUGCCUCUCUGGAUUCCUCGUCACUCAGUAGGGCAUCUCUGAGAGAAAUGCC | 0.05 |
| UACGUAGGUGGUUGUCCCCUGAUAGUGCUAAGGGGGCCUGGAAGUUUGGACUGGGCAGAGCUCAACACAGCGUGGCAAAGUGGCUGUGGCUAGACUGCCUCUCUGGAUUCCUCGCCACUCAGCAGGGCAUCUCUGAGAGAAAUGCC | 0.79 |
| UACGUAGGUGGUUUUCCCCUGAUAGUGCUAAGGGGGCCUGGAAGUUUGGACUGGGCAGAGCUCAACACAGCGUGGCAAAGUGGCUGUGGCUAGACUGCCUCUCUGGGUUCCUCGUCACUCUGCAGGGCAUCUCUGAGAGAAAUGCC | 1.28 |
| UACGUAGGUGGUUUUCCCCUGAUAGUGCUAAGGGGGCCUGGAAGUUUGGACUGGGCAGAGCUCAACACAGCGUGGCAAAGUGGCUGCGGCUAGACUGCCUCUCUGGAUUCCUCGUCAUUCAGCAGGGCAUCUCUGAGAGAAAUGCC | 0.22 |
| UACGUAGGUGGUUUUCCCCUGAUAGUGCUAACGGGGCCUGGAAGUUUGGACUGGGCAGAGCUCAACACAGCGUGGCAAAGUGGCUGAGGCUAGACUGCCUCUCUGGAUUCCUCGUCACUCAGCAGGGCAUCUCUGAGAGAAAUGCC | 0.06 |
| UACGUAGGUGGUUUUCCCCUGAUAGUGCUAAGGGGGCCUGGAUGUUUGGACUGGGCAGAGCUCAACACAGCGUGGCAAAGUGGCUGUGGCCAGACUGCCUCUCUGGAUUCCUCGUCACUCAGCAGGGCAUCUCUGAGAGAAAUGCC | 0.68 |
| UACGUAGGUGGCUUUCCUCUGAUAGUGCUAAGGGGGCCUGGAAGUUUGGACUGGGCAGAGCUCAACACAGCGUGGCAAAGUGGCUGUGGCUAGACUGCCUCUCUGGAUUCCUCGUCACUCAGCAGGGCAUCUCUGAGAGAAAUGCC | 1.28 |
| UACGUAGGUGGUUUUCCCCUGAUAGUGCUAAGGGGGCCUGGAAGUUUGGACUGUGCAGAGCUCAACACAGCGUGGCAAAGUGGCUGUGGCUAGACCGCCUCUCUGGAUUCCUCGUCACUCAGCAGGGCAUCUCUGAGAGAAAUGCC | 0.07 |
| UACGUAGGUGGUUUUCCCCUGAUAGUGCUAAGGGGGCCUGGAAGUUUGGACUGGGCAGAGCUCAACACAGCGUGGCGAAGUGGCUGUGGCUAGACUGCCUCUCUGGAUACCUCGUCACUCAGCAGGGCAUCUCUGAGAGAAAUGCC | 1.75 |
| UACGUAGGUGGUUUUCCCCUGAUAGUGCUAAGGGGGCUUGGAAGUUUGGACUGGGCAGAGCUCAACACAGCGUGGCAAAGUGGCUGUGGCUAGACUGCCUCUCUGGAUUCCUCGUCACUCAGCAGGGCAUCUCAGAGAGAAAUGCC | 1.23 |
| UACGUAGGUGGUUUUCCCCUGAUAGUGCUAAGGGGGCCUGGAAGCUUGGGCUGGGCAGAGCUCAACACAGCGUGGCAAAGUGGCUGUGGCUAGACUGCCUCUCUGGAUUCCUCGUCACUCAGCAGGGCAUCUCUGAGAGAAAUGCC | 1 |

| Variant | self-cleavage |
| --- | --- |
| UACGUAGAUGGUUCUCCCCUGAUAGUGCUAAGGGGGCCUGGAAGUUUGGACUGGGCAGAGCUCAACACAGCGUGGCAAAGUGGCUGUGGCUAGACUGCCUCUCUGGAUUCCUCGUCACUCAGCAGGGCAUCUCUGAGAGAAAUGCC | 1.32 |
| UACGUUGGUGGUUUUCCCCUGAUAGUGCUAAGGGGGCCUGGAAGUUUGGACUGGGCAGAGCUCAACACAGCGUGGCAAAGUGGCUGUGGCUAGACUGCCUCUCUGGAUUCCUCGUCACUCAGCAGGGCAUCUCUGAGAGAACUGCC | 0.28 |
| UACGUAGGUGGUUUUCCCCUGAUAGUGCUAAGGGGGCCUGGAAGUUUGGACUGGGCAGAGCUCAACACAGCGUGGCAUAGUGGCUGUGGCUAGACUGCCUCUCUGGAUUCCUCGUCACUCAGCAGGGCAACUCUGAGAGAAAUGCC | 2.96 |
| UACGUAGGUGGUUUUCCCCUGAUAGUGCUAAGGGGGCCAGGAAGUUUGGACUGGGCAGAGCUCAACACAGCGUGGCAAAGUGGCUGUGGCUAGACUGCCUCUCUGGAUUCCUCGUCACUCAGCAGGGCAUCUCUAAGAGAAAUGCC | 1.57 |
| UACGUAGGUGGUUUUCCCCUGAUAGUGCUAAGGGGGCCUGGAAGUUUGGACUGGGCAGAGCUCGACACAGCGUGGCAGAGUGGCUGUGGCUAGACUGCCUCUCUGGAUUCCUCGUCACUCAGCAGGGCAUCUCUGAGAGAAAUGCC | 0.25 |
| UACGUAGGUGGUUUUCCCCUGAUAGUGCUAAGGGGGCCUGGAAGUUUGGACUGGGCAGAGCUCAACACAGCGUGGCAAUGUGGCUGUGCCUAGACUGCCUCUCUGGAUUCCUCGUCACUCAGCAGGGCAUCUCUGAGAGAAAUGCC | 0.02 |
| UACGUAGGUGGUUUUCCCCUGAUAGUGCCAAGGGGGCCUGGAAGUUUGGACUGGGCAGAGCUCAACACAGCGUGGCAAAGUGGCUGUGGCUAGACUGCCUCUCUGGAUUCCUCGUCACUCAGCAGGGCAUCUCUGAGAGAAAAGCC | 1.17 |
| UACGUAGGUGGUUUUCCCCUGAUAGUGCUAAGGGGGCCUGGAAGUUUGGACUGGGCAGAGCUCAACACAGCGUGGCAAAGUGGCUGUGGCUAGUCUGCCUCUCCGGAUUCCUCGUCACUCAGCAGGGCAUCUCUGAGAGAAAUGCC | 0.55 |
| UACGUAGGUGGUUUUCCCCUGAUAGUGCUAAGGGGGCCUGGAAGUUUGGACUGGGCAGAGCUCAACACAGCGUGGCAAAGUGGCUGUGGCUAGACGGCCUCUCAGGAUUCCUCGUCACUCAGCAGGGCAUCUCUGAGAGAAAUGCC | 0.05 |
| UACGUAGGUGGUUUUCCCCUGAUAGUGCUAAGGGGGCCUGGAAGUUUGGACUGGGCAGAGCUCAACACAGCGUGGCAAAGUGGCUGUGGCUAGACUGCCUCUCUGGAUUCCUCGUCGCUCAGCAGGGCAUCACUGAGAGAAAUGCC | 0.59 |
| UACGUAGGUGGUUUUCCCCUGAUAGUGCCAAGGGGGCCUGGAAGUUUGGACUGGGCAGAGCUCAACACAGCGUGGCAAAGUGGCUGUGGCUAGACUGCCUCUCUGGAUUCCUCGUCACUAAGCAGGGCAUCUCUGAGAGAAAUGCC | 1.24 |
| UACGUAGGUGGUUUUCCCCUGAUAGUGCUAAGGGGGCCUGGAAGUUUGGACUGGGCAGAGCUCAACACAGCGUGGCAAAGUGGCUGUGGCUAGACUGCCUCUCUGGAUUCCUCGUCACUCAGCAGGGCAUCUCUGAGAAAAGUGCC | 1.15 |
| UACGUAGGUGGUUUUCCCCUGAUAGUGCUAAGGGGGCCUGGAAGUUUGGACUGGGCAGAGCUCAACACAGCGUGGCAAAGUGGCUGUGGCUAGACUGCCUCUCUGGAUUCCUCGGCACUCAGCAGGGCGUCUCUGAGAGAAAUGCC | 1.16 |
| UACGUAGGUGGUUUUCCCCUGAUAGUGCUAAGGGGGCCUGGAAGUUUGGACUGGGCAGAGCUCAACACUGCGUGGCAAUGUGGCUGUGGCUAGACUGCCUCUCUGGAUUCCUCGUCACUCAGCAGGGCAUCUCUGAGAGAAAUGCC | 0.08 |
| UACGUAGGUGGUUUUCCCCUGAUAGUGCUAAGGGGGCCUGGAAGUUUGGACUGGGCAGAGCUCAACACUGCGUGGCAAAGUGGCUGUGUCUAGACUGCCUCUCUGGAUUCCUCGUCACUCAGCAGGGCAUCUCUGAGAGAAAUGCC | 0.02 |
| UACGUAGGUGGUUUUCCCCUGAUAGUGCUAAGGGGGCCUGGAAGUUUGGACUGGGCAAAGCUCAACACAGCGUGGCAAAGUGGCUGUGGCUAGACUGCCUCUCUGGAUUCCUCGUCACUCGGCAGGGCAUCUCUGAGAGAAAUGCC | 0.13 |
| UACGUAGGUGGUUUUCCCCUGAUAGUGCUAAGGGGGCCUGGAAGUAUGGACCGGGCAGAGCUCAACACAGCGUGGCAAAGUGGCUGUGGCUAGACUGCCUCUCUGGAUUCCUCGUCACUCAGCAGGGCAUCUCUGAGAGAAAUGCC | 1.56 |
| UACGUAGGUGGUUUUCCCCUGAUAGUGCUAAGGGGGCCUGGAAGUUUGGACUGGGCAGAGCUCAACACAGCGUGGCAAAGUGGCUGUGGCUAGACUGCCUCUCUGGAUUCCUCGUCCCUCAGCAGAGCAUCUCUGAGAGAAAUGCC | 1.64 |
| UACGUAGGUGGUUUUCCCCUGAUAGUGCUAAGGGGGCCUGGAAGUUUGGACUGGGCUGAGCUCAACACAGCGUGGCUAAGUGGCUGUGGCUAGACUGCCUCUCUGGAUUCCUCGUCACUCAGCAGGGCAUCUCUGAGAGAAAUGCC | 0.05 |
